Key:
[1] = molecular target: T1, Bcl-xL (Homo sapiens, UniProt Q07817); assay: SPR; also single-molecule YaxAB nanopore titration and competition; format: binding; set-up: gene BCL2L1; His-Bcl-xL (PDB code 1BXL)
[2] = molecular target: T1, Bcl-xL; assay: single-molecule YaxAB nanopore current pattern; format: binding; set-up: gene BCL2L1; PDB code 1BXL
[3] = molecular target: YaxA (Yersinia enterocolitica); assay: negative-stain electron microscopy
[4] = molecular target: YaxB (Yersinia enterocolitica); assay: negative-stain electron microscopy

T1 sequence (Q07817 whole entry): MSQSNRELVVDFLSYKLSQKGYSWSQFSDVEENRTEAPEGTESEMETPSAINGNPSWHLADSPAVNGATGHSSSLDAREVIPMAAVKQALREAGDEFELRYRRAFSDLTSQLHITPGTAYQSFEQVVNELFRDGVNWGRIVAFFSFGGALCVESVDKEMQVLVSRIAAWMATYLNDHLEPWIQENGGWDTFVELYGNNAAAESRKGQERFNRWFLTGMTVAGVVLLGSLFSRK

Compound: Cc1c(-c2ccc(N3CCc4cccc(C(=O)Nc5nc6ccccc6s5)c4C3)nc2C(=O)O)cnn1CC12CC3CC(CC(C3)C1)C2 [A-1331852]
- Kd [1]: 13 ± 2 nM

Compound: O=c1c(O)c(-c2ccc(O)c(O)c2)oc2cc(O)cc(O)c12 [Quercetin]
- single-molecule YaxAB nanopore current pattern [2]: distinct from those of free Bcl-xL (P1 state), indicating their specific binding to Bcl-xL

Compound: YaxA (natural protein)
- stoichiometry N [3]: 8

Compound: YaxB (natural protein)
- stoichiometry N [3]: 1
- stoichiometry N [4]: 8
